By stoichiometry N is commonly meant a count of units in the complex or per binding partner.

The text below walks through data of publication PMC4775226, “Active and water-soluble form of lipidated Wnt protein is maintained by a serum glycoprotein afamin/α-albumin” (eLife, 2016).

One experiment addresses T1, Tg-tagged human afamin (human, UniProt P43652 22-599).
T1 construct: human afamin with a long (36 residues) N-terminal tag peptide; cDNA was a gift from Luc Bélanger; built by the same strategy as the tagged Wnts (tag, TEV site); also called Tg-hAFM; Tg-AFM; source: Expi293F cells, transiently co-transfected with PA-tagged Wnts, in serum-free culture medium; not shown: TARGET (Tg) tag, N-terminal, kept
T1 sequence (looked up): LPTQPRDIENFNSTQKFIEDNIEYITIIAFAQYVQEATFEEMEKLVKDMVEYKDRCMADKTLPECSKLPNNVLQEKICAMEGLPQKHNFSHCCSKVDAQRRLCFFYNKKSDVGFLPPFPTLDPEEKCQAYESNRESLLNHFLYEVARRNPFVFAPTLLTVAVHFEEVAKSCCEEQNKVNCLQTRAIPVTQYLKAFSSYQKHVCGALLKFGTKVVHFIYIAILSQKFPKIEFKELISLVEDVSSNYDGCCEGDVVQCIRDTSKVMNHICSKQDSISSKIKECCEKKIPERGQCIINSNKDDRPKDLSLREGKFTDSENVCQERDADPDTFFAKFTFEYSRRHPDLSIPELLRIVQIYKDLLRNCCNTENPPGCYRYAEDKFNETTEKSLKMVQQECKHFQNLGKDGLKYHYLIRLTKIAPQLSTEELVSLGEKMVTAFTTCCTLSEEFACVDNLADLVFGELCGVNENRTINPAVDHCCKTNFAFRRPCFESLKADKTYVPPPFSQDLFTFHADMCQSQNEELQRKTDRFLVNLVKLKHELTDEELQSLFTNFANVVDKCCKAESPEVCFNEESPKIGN
In words: co-IP; anti-Tg antibody P20.1-Sepharose, serum-free culture media of Expi293F cells co-transfected with Tg-hAFM and PA-tagged human Wnts; immunoblot with biotinylated NZ-1. The note with it: partners not purified. A general note: Immunoblotting shows a protein as a band on a membrane.

For experiment [1], the target named is T2, TARGET-tagged mouse Wnt3a (mouse, UniProt P27467 19-352).
T2 construct: Construct design (N-terminal region from the initiation Met) is in Supplementary file 1; also called Tg-Wnt3a; tagged Wnt3a; source: purified on P20.1-Sepharose (peptide elution), SEC; not shown: TARGET (Tg) tag, N-terminal, kept
T2 sequence (P27467 19-352): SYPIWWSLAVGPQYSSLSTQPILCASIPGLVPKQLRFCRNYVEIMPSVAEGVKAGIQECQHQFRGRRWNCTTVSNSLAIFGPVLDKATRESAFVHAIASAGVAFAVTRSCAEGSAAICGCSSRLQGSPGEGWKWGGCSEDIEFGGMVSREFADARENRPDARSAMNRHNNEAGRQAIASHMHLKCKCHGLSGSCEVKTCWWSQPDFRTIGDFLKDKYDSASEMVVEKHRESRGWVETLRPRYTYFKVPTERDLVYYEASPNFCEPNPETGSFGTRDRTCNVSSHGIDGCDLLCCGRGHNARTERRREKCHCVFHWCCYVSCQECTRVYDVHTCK
In words: SEC; immunoaffinity-purified Wnt preparation on Superdex 200 10/300GL in TBS, no detergent; fractions on nonreducing SDS-PAGE, Coomassie stain and immunoblots. The note with it: both partners purified. For orientation: In gel filtration, larger molecules generally elute earlier.

B1: PA-tagged human Wnt3 (natural protein, UniProt P56703 22-355, looked up)
chain: GYPIWWSLALGQQYTSLGSQPLLCGSIPGLVPKQLRFCRNYIEIMPSVAEGVKLGIQECQHQFRGRRWNCTTIDDSLAIFGPVLDKATRESAFVHAIASAGVAFAVTRSCAEGTSTICGCDSHHKGPPGEGWKWGGCSEDADFGVLVSREFADARENRPDARSAMNKHNNEAGRTTILDHMHLKCKCHGLSGSCEVKTCWWAQPDFRAIGDFLKDKYDSASEMVVEKHRESRGWVETLRAKYSLFKPPTERDLVYYENSPNFCEPNPETGSFGTRDRTCNVTSHGIDGCDLLCCGRGHNTRTEKRKEKCHCIFHWCCYVSCQECIRIYDVHTCK
Regarding B1, in the experiment with Tg-tagged human afamin, the binding result is “binds”.

B2: bovine afamin from the serum of the culture medium (natural protein, UniProt G3MYZ3 22-604, looked up)
chain: LPTQPQDVDDVRITQKFIDDNIGYITIIAFAQYIQEASFEEVEMLVKAMTEYRDKCLADRTLPECSKLANEVLLENICAMEGLPQKYNFSHCCHKVDFERRLCFFHNKKADIGLLPPLPTLDPEEKCQTYKNNRESFLNNYVYEVSRRNPFVFAPTLLTVAARFEEMTKTCCEEQEKANCFQTKAEPFIYYLKALSSYQKNACRALMKFGRQILQSINIAILSQKFPKIGFKQLTSLLEDVSSKYDGCCEGDVVQCIRGRSKVMSHICSKQDSISSKIKDCCEKKIPERGECIIYSNKDDRPNDLSLREAKFIESDNVCEKRDADQANFMAEFLYEYSRRHPELSTPELLRIAKVYKDLLKECCNMENPPECYRHAENRFNETTEKSLKIVQRECEHFQNLGKDDLKYHYLINLTKLAPQLSTEELTFLGKEMVMALTTCCTLSEEFACVDNLVDLVLGELCGINENRNINPAVDHCCKTNFAFRRSCFESLEADKTYVPPSTSQGLFTFHADLCQAHNEELQRKKDRFLVNLVKLKPELAGEELWSLLADFTNVVEKCCKAQEPEACFKEESPKLAAKSQAA
notes: bovine afamin, serum-derived; Glycoprotein of about 70 kDa; also called AFM; α-albumin; source: endogenous, fetal calf serum in the culture medium
As for B2, the “stoichiometry N” value in experiment [1] came to 1.
